According to patent US20230002480A1:

Tests used:
Experiment in all cases: cell-based or functional assay
[1] = molecular target: HIV-1 Env of pseudovirus Q259.d2.17 (HIV-1)
[2] = molecular target: HIV-1 Env of pseudovirus 6240_08_TA5_4622 (HIV-1)
[3] = molecular target: HIV-1 Env of pseudovirus ZM53M.PB12 (HIV-1)
[4] = molecular target: HIV-1 Env of pseudovirus CAP45.2.00.G3 (HIV-1)
[5] = molecular target: HIV-1 Env of pseudovirus ZM109F.PB4 (HIV-1)
[6] = molecular target: HIV-1 Env of pseudovirus SC422661.8 (HIV-1)
[7] = molecular target: HIV-1 Env of pseudovirus 235-47 (HIV-1)
[8] = molecular target: HIV-1 Env of pseudovirus BF1266.431a (HIV-1)
[9] = molecular target: HIV-1 Env of pseudovirus 1012_11_TC21_3257 (HIV-1)
[10] = molecular target: HIV-1 Env of pseudovirus HIV-16055-2.3 (HIV-1)
[11] = molecular target: HIV-1 Env of pseudovirus R2184.c04 (HIV-1)
[12] = molecular target: HIV-1 Env of pseudovirus RHPA4259.7 (HIV-1)
[13] = molecular target: HIV-1 Env of pseudovirus X1254_c3 (HIV-1)
[14] = molecular target: HIV-1 Env of pseudovirus C4118.c09 (HIV-1)
[15] = molecular target: HIV-1 Env of pseudovirus CNE30 (HIV-1)
[16] = molecular target: HIV-1 Env of pseudovirus 62357_14_D3_4589 (HIV-1)
[17] = molecular target: HIV-1 Env of pseudovirus BJOX015000.11.5 (HIV-1)
[18] = molecular target: HIV-1 Env of pseudovirus P0402_c2_11 (HIV-1)
[19] = molecular target: HIV-1 Env of pseudovirus CNE17 (HIV-1)
[20] = molecular target: HIV-1 Env of pseudovirus Ce703010054_2A2 (HIV-1)
[21] = molecular target: HIV-1 Env of pseudovirus 1394C9G1(Rev-) (HIV-1)
[22] = molecular target: HIV-1 Env of pseudovirus BJOX009000.02.4 (HIV-1)
[23] = molecular target: HIV-1 Env of pseudovirus 211-9 (HIV-1)
[24] = molecular target: HIV-1 Env of pseudovirus Du156.12 (HIV-1)
[25] = molecular target: HIV-1 Env of pseudovirus CNE58 (HIV-1)
[26] = molecular target: HIV-1 Env of pseudovirus Du422.1 (HIV-1)
[27] = molecular target: HIV-1 Env of pseudovirus 191955_A11 (HIV-1)
[28] = molecular target: HIV-1 Env of pseudovirus 1006_11_C3_1601 (HIV-1)
[29] = molecular target: HIV-1 Env of pseudovirus Q842.d12 (HIV-1)
[30] = molecular target: HIV-1 Env of pseudovirus 249M B10 (HIV-1)
[31] = molecular target: HIV-1 Env of pseudovirus CNE19 (HIV-1)
[32] = molecular target: HIV-1 Env of pseudovirus 6545.v4.c1 (HIV-1)
[33] = molecular target: HIV-1 Env of pseudovirus X1632_S2_B10 (HIV-1)
[34] = molecular target: HIV-1 Env of pseudovirus 6041.v3.c23 (HIV-1)
[35] = molecular target: HIV-1 Env of pseudovirus 231965.c01 (HIV-1)
[36] = molecular target: HIV-1 Env of pseudovirus 3103.v3.c10 (HIV-1)

N49P7.1 (antibody) was tested, and the neutralization IC50 [1] was 0.505 µg/mL, the neutralization IC80 [1] was 4.23 µg/mL and the neutralization MPI [1] was 97. It also gave a neutralization IC50 [2] of 0.509 µg/mL, a neutralization IC80 [2] of 1.95 µg/mL and a neutralization MPI [2] of 100. It also gave a neutralization IC50 [3] of 0.287 µg/mL, a neutralization IC80 [3] of 1 µg/mL and a neutralization MPI [3] of 100. For the same substance, the neutralization IC50 [4] was 0.086 µg/mL, the neutralization IC80 [4] was 0.567 µg/mL and the neutralization MPI [4] was 100. It also gave a neutralization IC50 [5] of 0.055 µg/mL, a neutralization IC80 [5] of 0.199 µg/mL and a neutralization MPI [5] of 100. It also gave a neutralization IC50 [6] of 0.125 µg/mL, a neutralization IC80 [6] of 0.417 µg/mL and a neutralization MPI [6] of 100. It also gave a neutralization IC50 [7] of 0.078 µg/mL, a neutralization IC80 [7] of 0.419 µg/mL and a neutralization MPI [7] of 97. It also gave a neutralization IC50 [8] of 0.033 µg/mL, a neutralization IC80 [8] of 0.11 µg/mL and a neutralization MPI [8] of 100. It also gave a neutralization IC50 [9] of 0.063 µg/mL, a neutralization IC80 [9] of 0.176 µg/mL and a neutralization MPI [9] of 100. It also gave a neutralization IC50 [10] of 0.088 µg/mL, a neutralization IC80 [10] of 0.318 µg/mL and a neutralization MPI [10] of 100. The neutralization IC50 [11] was 0.018 µg/mL, the neutralization IC80 [11] was 0.04 µg/mL and the neutralization MPI [11] was 100. It also gave a neutralization IC50 [12] of 0.108 µg/mL, a neutralization IC80 [12] of 0.292 µg/mL and a neutralization MPI [12] of 100. For the same substance, the neutralization IC50 [13] was 3.96 µg/mL, the neutralization IC80 [13] was 18.2 µg/mL and the neutralization MPI [13] was 96. It also gave a neutralization IC50 [14] of 0.048 µg/mL, a neutralization IC80 [14] of 0.216 µg/mL and a neutralization MPI [14] of 100. It also gave a neutralization IC50 [15] of 0.307 µg/mL, a neutralization IC80 [15] of 1.01 µg/mL and a neutralization MPI [15] of 100. For the same substance, the neutralization IC50 [16] was 0.028 µg/mL, the neutralization IC80 [16] was 0.15 µg/mL and the neutralization MPI [16] was 100. It also gave a neutralization IC50 [17] of 0.111 µg/mL, a neutralization IC80 [17] of 0.487 µg/mL and a neutralization MPI [17] of 100. The neutralization IC50 [18] was 0.029 µg/mL, the neutralization IC80 [18] was 0.115 µg/mL and the neutralization MPI [18] was 100. For the same substance, the neutralization IC50 [19] was 0.254 µg/mL, the neutralization IC80 [19] was 0.86 µg/mL and the neutralization MPI [19] was 100. The neutralization IC50 [20] was 0.085 µg/mL, the neutralization IC80 [20] was 0.364 µg/mL and the neutralization MPI [20] was 100. It also gave a neutralization IC50 [21] of 4.37 µg/mL, a neutralization IC80 [21] of 30.9 µg/mL and a neutralization MPI [21] of 88. It also gave a neutralization IC50 [22] of 0.219 µg/mL, a neutralization IC80 [22] of 0.756 µg/mL and a neutralization MPI [22] of 100. For the same substance, the neutralization IC50 [23] was 0.34 µg/mL, the neutralization IC80 [23] was 1.17 µg/mL and the neutralization MPI [23] was 100. For the same substance, the neutralization IC50 [24] was 0.045 µg/mL, the neutralization IC80 [24] was 0.131 µg/mL and the neutralization MPI [24] was 100. For the same substance, the neutralization IC50 [25] was 0.049 µg/mL, the neutralization IC80 [25] was 0.107 µg/mL and the neutralization MPI [25] was 100. For the same substance, the neutralization IC50 [26] was 3.76 µg/mL, the neutralization IC80 [26] was 15.7 µg/mL and the neutralization MPI [26] was 93. The neutralization IC50 [27] was 1.99 µg/mL, the neutralization IC80 [27] was 10.1 µg/mL and the neutralization MPI [27] was 98. It also gave a neutralization IC50 [28] of 0.061 µg/mL, a neutralization IC80 [28] of 0.193 µg/mL and a neutralization MPI [28] of 100. For the same substance, the neutralization IC50 [29] was 0.028 µg/mL, the neutralization IC80 [29] was 0.08 µg/mL and the neutralization MPI [29] was 100. The neutralization IC50 [30] was 0.053 µg/mL, the neutralization IC80 [30] was 0.225 µg/mL and the neutralization MPI [30] was 100. It also gave a neutralization IC50 [31] of 0.027 µg/mL, a neutralization IC80 [31] of 0.128 µg/mL and a neutralization MPI [31] of 100.

PGT151 (antibody) gave an IC50 [1] of over 50 µg/mL, an IC80 [1] of over 50 µg/mL and an IC50 [2] of 0.046 µg/mL. The IC80 [2] was 0.42 µg/mL, the IC50 [3] was over 50 µg/mL and the IC80 [3] was over 50 µg/mL. For the same substance, the IC50 [4] was 0.007 µg/mL, the IC80 [4] was over 50 µg/mL and the IC50 [5] was 0.609 µg/mL. The IC80 [5] was over 50 µg/mL, the IC50 [6] was 0.005 µg/mL and the IC80 [6] was 0.028 µg/mL. It also gave an IC50, titer in TZM.bl cells [7] of 38.1 µg/mL, an IC80, titer in TZM.bl cells [7] of over 50 µg/mL and an IC50 [8] of over 50 µg/mL. It also gave an IC80 [8] of over 50 µg/mL, an IC50, titer in TZM.bl cells [32] of 0.004 µg/mL and an IC80, titer in TZM.bl cells [32] of 0.026 µg/mL. It also gave an IC50 [9] of over 50 µg/mL, an IC80 [9] of over 50 µg/mL and an IC50 [10] of 0.143 µg/mL. For the same substance, the IC80 [10] was over 50 µg/mL, the IC50, titer in TZM.bl cells [11] was over 50 µg/mL and the IC80, titer in TZM.bl cells [11] was over 50 µg/mL. The IC50 [12] was 0.006 µg/mL, the IC80 [12] was 0.033 µg/mL and the IC50, titer in TZM.bl cells [13] was 0.309 µg/mL. It also gave an IC80, titer in TZM.bl cells [13] of over 50 µg/mL, an IC50, titer in TZM.bl cells [33] of 0.061 µg/mL and an IC80, titer in TZM.bl cells [33] of over 50 µg/mL. For the same substance, the IC50, titer in TZM.bl cells [14] was over 50 µg/mL, the IC80, titer in TZM.bl cells [14] was over 50 µg/mL and the IC50 [15] was over 50 µg/mL. For the same substance, the IC80 [15] was over 50 µg/mL, the IC50 [16] was 0.004 µg/mL and the IC80 [16] was 0.023 µg/mL. For the same substance, the IC50, titer in TZM.bl cells [17] was over 50 µg/mL, the IC80, titer in TZM.bl cells [17] was over 50 µg/mL and the IC50, titer in TZM.bl cells [34] was 0.004 µg/mL. It also gave an IC80, titer in TZM.bl cells [34] of 0.024 µg/mL, an IC50, titer in TZM.bl cells [18] of under 0.001 µg/mL and an IC80, titer in TZM.bl cells [18] of 0.004 µg/mL. The IC50 [19] was 0.093 µg/mL, the IC80 [19] was over 50 µg/mL and the IC50 [20] was 0.013 µg/mL. For the same substance, the IC80 [20] was 0.075 µg/mL, the IC50 [21] was 0.022 µg/mL and the IC80 [21] was 0.733 µg/mL. For the same substance, the IC50, titer in TZM.bl cells [22] was over 50 µg/mL, the IC80, titer in TZM.bl cells [22] was over 50 µg/mL and the IC50, titer in TZM.bl cells [23] was 0.002 µg/mL. The IC80, titer in TZM.bl cells [23] was 0.01 µg/mL, the IC50, titer in TZM.bl cells [35] was under 0.001 µg/mL and the IC80, titer in TZM.bl cells [35] was 0.012 µg/mL. It also gave an IC50 [24] of 0.005 µg/mL, an IC80 [24] of 0.023 µg/mL and an IC50 [25] of 0.004 µg/mL. The IC80 [25] was 0.016 µg/mL, the IC50 [26] was 4.6 µg/mL and the IC80 [26] was over 50 µg/mL. It also gave an IC50, titer in TZM.bl cells [36] of 0.014 µg/mL, an IC80, titer in TZM.bl cells [36] of 0.202 µg/mL and an IC50 [27] of 0.004 µg/mL. The IC80 [27] was 0.014 µg/mL, the IC50 [28] was 2.89 µg/mL and the IC80 [28] was over 50 µg/mL. The IC50 [29] was 0.001 µg/mL, the IC80 [29] was 0.014 µg/mL and the IC50 [30] was 0.007 µg/mL. For the same substance, the IC80 [30] was 0.023 µg/mL, the IC50 [31] was 0.014 µg/mL and the IC80 [31] was over 50 µg/mL.
